Laboratory results reported in patent US5527555A, “Brazzein sweetener” (Wisconsin Alumni Research Foundation, priority 1994, dated 1996).

How the values were obtained:
[1] = Thermostability assay (incubation at 98° C., sweetness then tasted); assay type: physicochemical
Description: A thermostability assay was done (2 hours at 98° C.) at a concentration of 0.5 mg/ml Brazzein at the following different pH levels: 2 (Glycine-HCL buffer); 4 (Acetate buffer); 6 (Phosphate buffer); and 8 (Tris-HCL buffer). All of the buffers were in concentration of 50 mM. After the incubations, the samples were cooled down to room temperature and the sweetness of the samples was tasted with a comparison to the original protein solution.

[2] = sweetness by tasting, compared with sucrose solution; assay type: in vivo

## Brazzein: sweet protein isolated from Pentadiplandra brazzeana Baillon, about 6,473 Daltons, amino acid sequence SEQ ID NO:4 (EDKCKKVYENYPVSKCQLANQCNYDCKLDKHARSGECFYDEKRNLQCICDYCEY)
[1]; 2 hours at 98° C., 0.5 mg/ml, pH 2, 4, 6 and 8 (50 mM buffers), sweetness tasted against original protein solution
  thermostability: excellent thermostability
[1]; two hours of incubation at 98° C.
  sweetness after heat incubation: still tasted very sweet
[2]; 2% solution compared with a 2% sucrose solution
  sweetness relative to sucrose: about 2,000 times
[2]; taste, duration of sweetness
  temporal sweetness response: relatively long lasting sweetness response
